Experimental data published in article PMC5086056.

What follows are substances tested against AcGFP1-JAK3 (pAcGFP1-JAK3) (Bos taurus) (UniProt E1BEL4) (assay: co-IP; Matchmaker Co-IP system; ProLabel enzymatic activity (luminescence, ProLabel detection kit) in protein samples of HEK cells co-transfected with pAcGFP1-JAK3 and a pProLabel prey; read 25 min after addition of the substrate; against the negative control).
Sequence of UniProt E1BEL4 (E1BEL4 entry or part of it): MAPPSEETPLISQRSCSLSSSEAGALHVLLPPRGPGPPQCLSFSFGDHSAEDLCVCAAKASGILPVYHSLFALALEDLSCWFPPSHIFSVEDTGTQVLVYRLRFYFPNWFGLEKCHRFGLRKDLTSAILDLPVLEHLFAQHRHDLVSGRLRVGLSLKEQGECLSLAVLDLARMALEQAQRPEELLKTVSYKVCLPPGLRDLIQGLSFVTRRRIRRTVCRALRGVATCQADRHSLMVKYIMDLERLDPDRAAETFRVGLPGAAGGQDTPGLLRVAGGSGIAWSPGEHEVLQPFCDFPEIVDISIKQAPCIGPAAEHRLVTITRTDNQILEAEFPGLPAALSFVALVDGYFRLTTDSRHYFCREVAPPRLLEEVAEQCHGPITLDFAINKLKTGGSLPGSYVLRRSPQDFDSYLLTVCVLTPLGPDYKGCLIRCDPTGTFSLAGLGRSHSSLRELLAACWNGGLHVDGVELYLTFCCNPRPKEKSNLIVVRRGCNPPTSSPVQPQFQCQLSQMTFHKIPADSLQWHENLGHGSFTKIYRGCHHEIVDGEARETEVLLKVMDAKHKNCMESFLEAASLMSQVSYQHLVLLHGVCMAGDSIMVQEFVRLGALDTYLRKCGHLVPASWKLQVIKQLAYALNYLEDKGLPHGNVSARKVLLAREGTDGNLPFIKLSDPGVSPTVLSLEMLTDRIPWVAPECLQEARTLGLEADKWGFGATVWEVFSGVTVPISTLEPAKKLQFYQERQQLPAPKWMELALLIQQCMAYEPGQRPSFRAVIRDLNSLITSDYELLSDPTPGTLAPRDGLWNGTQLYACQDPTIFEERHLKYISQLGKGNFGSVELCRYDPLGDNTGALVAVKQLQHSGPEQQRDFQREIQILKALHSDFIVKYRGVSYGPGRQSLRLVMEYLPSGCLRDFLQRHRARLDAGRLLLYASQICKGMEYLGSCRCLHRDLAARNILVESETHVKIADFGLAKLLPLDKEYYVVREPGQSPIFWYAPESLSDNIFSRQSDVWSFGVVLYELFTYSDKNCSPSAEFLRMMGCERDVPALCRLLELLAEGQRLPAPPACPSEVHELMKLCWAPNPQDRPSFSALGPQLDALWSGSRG

Row | fold induction in ProLabel enzymatic activity as compared to the negative control [fold] | Substance
1 | 15 | ProLabel-CDKN1B (pProLabel-CDKN1B) (from UniProt A6QLS3 1-198) (natural protein)
2 | 34 | ProLabel-INHBA (pProLabel-INHBA) (from UniProt P07995 21-425) (natural protein)
3 | 42 | ProLabel-LEPROTL1 (pProLabel-LEPROTL1) (from UniProt Q32PD8 1-131) (natural protein)
